# B1: MBP-tagged truncated mouse TRPM7 (amino acids 1 to 1280) (domain or fragment)
# chain: MSQKSWIESTLTKRECVYIIPSSKDPHRCLPGCQICQQLVRCFCGRLVKQHACFTASLAMKYSDVKLGEHFNQAIEEWSVEKHTEQSPTDAYGVINFQGGSHSYRAKYVRLSYDTKPEIILQLLLKEWQMELPKLVISVHGGMQKFELHPRIKQLLGKGLIKAAVTTGAWILTGGVNTGVAKHVGDALKEHASRSSRKICTIGIAPWGVIENRNDLVGRDVVAPYQTLLNPLSKLNVLNNLHSHFILVDDGTVGKYGAEVRLRRELEKTINQQRIHARIGQGVPVVALIFEGGPNVILTVLEYLQESPPVPVVVCEGTGRAADLLAYIHKQTEEGGNLPDAAEPDIISTIKKTFNFGQSEAVHLFQTMMECMKKKELITVFHIGSEDHQDIDVAILTALLKGTNASAFDQLILTLAWDRVDIAKNHVFVYGQQWLVGSLEQAMLDALVMDRVSFVKLLIENGVSMHKFLTIPRLEELYNTKQGPTNPMLFHLIRDVKQGNLPPGYKITLIDIGLVIEYLMGGTYRCTYTRKRFRLIYNSLGGNNRRSGRNTSSSTPQLRKSHETFGNRADKKEKMRHNHFIKTAQPYRPKMDASMEEGKKKRTKDEIVDIDDPETKRFPYPLNELLIWACLMKRQVMARFLWQHGEESMAKALVACKIYRSMAYEAKQSDLVDDTSEELKQYSNDFGQLAVELLEQSFRQDETMAMKLLTYELKNWSNSTCLKLAVSSRLRPFVAHTCTQMLLSDMWMGRLNMRKNSWYKVILSILVPPAILMLEYKTKAEMSHIPQSQDAHQMTMEDSENNFHNITEEIPMEVFKEVKILDSSDGKNEMEIHIKSKKLPITRKFYAFYHAPIVKFWFNTLAYLGFLMLYTFVVLVKMEQLPSVQEWIVIAYIFTYAIEKVREVFMSEAGKISQKIKVWFSDYFNVSDTIAIISFFVGFGLRFGAKWNYINAYDNHVFVAGRLIYCLNIIFWYVRLLDFLAVNQQAGPYVMMIGKMVANMFYIVVIMALVLLSFGVPRKAILYPHEEPSWSLAKDIVFHPYWMIFGEVYAYEIDVCANDSTLPTICGPGTWLTPFLQAVYLFVQYIIMVNLLIAFFNNVYLQVKAISNIVWKYQRYHFIMAYHEKPVLPPPLIILSHIVSLFCCVCKRRKKDKTSDGPKLFLTEEDQKKLHDFEEQCVEMYFDEKDDKFNSGSEERIRVTFERVEQMSIQIKEVGDRVNYIKRSLQSLDSQIGHLQDLSALTVDTLKTLTAQKASEASKVHNEITRELSISKHLAQNLID
# Biological target: the molecule itself
# Test: cryo-EM structure
protein,measurement,value
B1,stoichiometry N,4

# Source: paper PMC6126765 (Proceedings of the National Academy of Sciences of the …, 2018)
